# Measured values as given in patent US20240026334.
# Biological target: type I collagen (Rattus norvegicus) (UniProt P02454+P02466)
# Conditions: maximum binding at 12-18% DNA mass fraction; binding decreases at higher DNA fraction, no fibers at ~45% DNA; collagen species not stated in this example
# type I collagen (Rattus norvegicus), sequence (P02454 152-1207, chain 1 of 2): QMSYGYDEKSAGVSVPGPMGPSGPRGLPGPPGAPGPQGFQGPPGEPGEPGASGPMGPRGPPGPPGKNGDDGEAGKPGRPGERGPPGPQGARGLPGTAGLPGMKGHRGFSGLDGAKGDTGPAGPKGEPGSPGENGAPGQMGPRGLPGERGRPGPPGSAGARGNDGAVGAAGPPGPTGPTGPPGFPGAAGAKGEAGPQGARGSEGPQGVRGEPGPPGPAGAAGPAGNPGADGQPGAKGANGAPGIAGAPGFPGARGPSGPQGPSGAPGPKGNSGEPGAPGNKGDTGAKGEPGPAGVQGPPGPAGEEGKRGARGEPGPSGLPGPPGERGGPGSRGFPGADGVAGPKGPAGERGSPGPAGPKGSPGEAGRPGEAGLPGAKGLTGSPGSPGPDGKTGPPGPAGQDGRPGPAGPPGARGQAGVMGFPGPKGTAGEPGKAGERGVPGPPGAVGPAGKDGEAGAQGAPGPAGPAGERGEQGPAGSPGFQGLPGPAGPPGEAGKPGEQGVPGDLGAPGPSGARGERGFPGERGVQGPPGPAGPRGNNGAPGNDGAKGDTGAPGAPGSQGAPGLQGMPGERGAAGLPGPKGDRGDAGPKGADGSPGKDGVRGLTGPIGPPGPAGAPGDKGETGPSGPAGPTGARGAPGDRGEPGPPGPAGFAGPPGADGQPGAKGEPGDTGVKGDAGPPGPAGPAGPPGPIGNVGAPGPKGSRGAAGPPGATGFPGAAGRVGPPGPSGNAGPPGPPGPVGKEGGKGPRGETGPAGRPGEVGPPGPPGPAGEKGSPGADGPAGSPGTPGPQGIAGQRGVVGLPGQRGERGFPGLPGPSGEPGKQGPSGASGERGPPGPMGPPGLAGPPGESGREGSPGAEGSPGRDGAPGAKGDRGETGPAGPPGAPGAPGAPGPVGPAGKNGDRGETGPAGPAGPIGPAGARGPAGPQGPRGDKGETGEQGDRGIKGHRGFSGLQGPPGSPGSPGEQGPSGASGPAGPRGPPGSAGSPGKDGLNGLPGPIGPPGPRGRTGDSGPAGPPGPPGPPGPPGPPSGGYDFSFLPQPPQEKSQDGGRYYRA
# type I collagen (Rattus norvegicus), sequence (P02466 86-1125, chain 2 of 2): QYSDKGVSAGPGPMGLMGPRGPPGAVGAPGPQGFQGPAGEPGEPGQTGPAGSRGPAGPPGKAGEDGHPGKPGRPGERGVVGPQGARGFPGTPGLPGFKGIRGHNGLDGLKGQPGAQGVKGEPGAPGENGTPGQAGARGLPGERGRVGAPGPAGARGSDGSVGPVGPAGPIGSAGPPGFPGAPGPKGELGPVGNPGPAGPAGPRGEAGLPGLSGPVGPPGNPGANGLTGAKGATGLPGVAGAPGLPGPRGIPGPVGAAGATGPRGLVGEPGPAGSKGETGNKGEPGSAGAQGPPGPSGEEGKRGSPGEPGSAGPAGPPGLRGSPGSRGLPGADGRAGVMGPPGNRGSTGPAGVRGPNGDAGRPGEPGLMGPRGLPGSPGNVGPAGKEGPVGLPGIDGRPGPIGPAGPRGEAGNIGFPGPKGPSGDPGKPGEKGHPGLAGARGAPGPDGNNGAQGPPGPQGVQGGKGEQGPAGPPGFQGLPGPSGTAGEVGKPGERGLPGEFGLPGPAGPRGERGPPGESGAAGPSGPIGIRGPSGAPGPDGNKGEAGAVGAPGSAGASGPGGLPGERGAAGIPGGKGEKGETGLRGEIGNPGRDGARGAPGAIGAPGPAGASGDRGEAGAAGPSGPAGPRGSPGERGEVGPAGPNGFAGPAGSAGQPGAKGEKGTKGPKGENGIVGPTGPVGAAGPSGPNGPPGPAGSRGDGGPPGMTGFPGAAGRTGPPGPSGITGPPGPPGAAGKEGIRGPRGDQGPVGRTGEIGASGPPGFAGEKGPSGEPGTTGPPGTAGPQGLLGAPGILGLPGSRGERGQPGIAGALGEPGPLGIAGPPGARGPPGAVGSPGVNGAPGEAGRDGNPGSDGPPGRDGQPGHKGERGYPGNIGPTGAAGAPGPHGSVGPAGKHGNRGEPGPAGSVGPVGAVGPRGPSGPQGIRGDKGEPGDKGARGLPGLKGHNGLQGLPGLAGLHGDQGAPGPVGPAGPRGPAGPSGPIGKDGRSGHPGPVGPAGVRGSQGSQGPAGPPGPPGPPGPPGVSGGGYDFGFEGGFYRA
sequence,measurement,value
AATTTAGGAGCTGAAGGTCAGGGCACCAGCAGCCTTTGGAAGCCTAVAGGACAACAGTCAGCCTGGCTAGAAAAAAAAACAATGTCACAG [90 nt random ssDNA oligomer],binding (ug ssDNA/ug collagen),0.15
